Results from patent US20220064310A1 (DEVELOPMENT CENTER FOR BIOTECHNOLOGY, published 2022).

Columns and labels:
[1] = target: T1, human CSF-1R-Fc protein (M-CSF R/CD115 Fc chimera, R&D Systems) (human, UniProt P07333 20-512); experiment: ELISA, 100 ng human CSF-1R-Fc coated, four parameter logistic fit
T1 construct: Fc part of the bought chimera not given
Experimental: (§1) After binding and washing, the bound mAb AB21 was assessed using a horseradish peroxidase conjugated secondary antibody.
(§2) One hundred (100) ng of human CSF-1R-Fc protein was coated on a 96-well ELISA plate, and the plate was further washed with PBS. Serial dilutions from 1×10⁻¹² to 1×10⁻⁸ M of AB21 mAb antibody were added to the plate, and the plate was incubated at 37° C. for 1 hour. A goat anti-mouse IgG conjugated with horseradish peroxidase (HRP) was added. After 1 hour, 3,3′,5,5′-Tetramethylbenzidine (TMB) was added and OD450 was read. Every study was repeated three times. Data were presented as mean SD. OD readings and concentrations of antibodies were used to make a multiple scatter plot using GraphPad Prism 5. The values were predicted by four parameter logistic fit.

[2] = target: T2, human CSF-1R extracellular domain (CSF-1R-ECD) (human, UniProt P07333 20-512); experiment: Biacore T200 SPR, AB21 amine-coupled on the chip, CSF-1R-ECD injected at 0.3125 to 40 nM, 1:1 Langmuir fit
Source text: (§3) To know the biding kinetics difference among individual antibodies, surface plasmon resonance (SPR) measurement with a BIAcore T200 (BIAcore, Inc., Piscataway, N.J.) was used as previously described (Karlsson & Fait, (1997) J. Immunol Methods 200:121-133). Carboxymethylated dextran biosensor chips (CMS, BIAcore Inc.) were activated with N-ethyl-N′-(3-dimethyl aminopropyl)-carbodiimide hydrochloride (EDC) and N-hydroxy succinimide (NHS) according to the supplier's instructions. AB21 mAb was diluted with 10 mM sodium acetate, pH 4.8, into 5 microgram/ml before injection at a flow rate of 20 micro L/minute to achieve approximately 100 response units (RU) of coupled protein followed by the injection of 1M ethanolamine to block unreacted groups. For kinetics measurements, two-fold serial dilutions of CSF-1R-ECD (0.3125 nM to 40 nM) were injected in HBS-P BIAcore running buffer provided by the manufacturer (BIAcore, Inc., Piscataway, N.J.) at 25° C. at a flow rate of 30 μL/min, and binding responses on the AB21 mAb were corrected by subtraction of responses on a blank flow cell. Association rates (kon or ka) and dissociation rates (koff or kd) were calculated using a simple one-to-one Langmuir binding model with separate fittings of kon and koff was used. (BIAcore™ Evaluation Software version 3.2).

mouse CSF-1R = target: T3, mouse CSF-1R (mouse, UniProt P09581 20-511, limits assumed); experiment: not described
T3 sequence (looked up): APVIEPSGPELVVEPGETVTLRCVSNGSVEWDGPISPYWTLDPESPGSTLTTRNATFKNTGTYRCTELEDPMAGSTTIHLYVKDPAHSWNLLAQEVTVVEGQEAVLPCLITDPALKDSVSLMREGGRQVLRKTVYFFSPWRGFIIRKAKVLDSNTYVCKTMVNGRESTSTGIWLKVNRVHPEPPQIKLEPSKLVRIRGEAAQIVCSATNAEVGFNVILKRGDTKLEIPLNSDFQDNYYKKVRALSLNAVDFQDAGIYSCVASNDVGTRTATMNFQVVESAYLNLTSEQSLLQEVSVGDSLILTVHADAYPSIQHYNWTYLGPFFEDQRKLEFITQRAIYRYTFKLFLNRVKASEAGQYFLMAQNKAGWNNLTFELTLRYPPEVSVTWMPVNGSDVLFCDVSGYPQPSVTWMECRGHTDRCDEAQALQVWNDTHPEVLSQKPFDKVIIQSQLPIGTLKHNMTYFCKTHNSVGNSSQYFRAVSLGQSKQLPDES

[3] = target: T1, human CSF-1R-Fc protein (M-CSF R/CD115 …); experiment: ELISA, coated M-CSF R/CD115 Fc chimera (R&D), AB21 titrated, goat anti-mouse IgG-HRP, Abs450
Experimental: as §1, §2

[4] = target: T4, human CSF-1R on the cell surface (THP-1 cells, endogenous); Ba/F3 cells stably expressing full-length human … (human, UniProt P07333 20-972); experiment: flow cytometry on THP-1 cells, FITC anti-mouse secondary antibody, readout CD115+ of single cells (%)
T4 construct: whole, on cells; also called Ba/F3-CSF-1R; Ba/F3-hCSF-1R
Experimental: In addition to binding CSF-1R ECD in vitro, antibodies of the invention can also bind CSF-1R on cells. In this example, THP-1 cells (human monocytic cell line, ATCC® TIB-202™) were stained in different concentrations of antibodies (AB21) from 6 to 0.625 μg/ml. After washing, cells were stained with secondary antibody FITC anti-mouse (1:500 dilution). Cells were fixed with a fixation buffer (FluroFix™ buffer, Biolegend) and analyzed with LSRFortessa FACS analyzer (Becton Dickson, US). […] The dose-dependent binding fits a sigmoid curve in the semi-log plot, indicating binding to a specific site (i.e., the antibody binds specifically to the target on the THP-1 cells).

[5] = target: T2, human CSF-1R extracellular domain …; experiment: SPR BIAcore T200, AB21 amine-coupled, CSF-1R-ECD 0.3125-40 nM as analyte, 25 C
Source text: as §3

[6] = target: T5, CSF-1R-ECD-human Fc (in house) (human, UniProt P07333 20-512); experiment: blocking ELISA: coated CSF-1R-ECD-human Fc, AB21 titrated together with M-CSF, bound CSF-1 detected with biotinylated anti-CSF-1 BAF216 and streptavidin-HRP, Abs450
T5 construct: In-house fusion; also called CSF-1R-ECD-hFc; CSF1R-ECD-hFc; not shown: human Fc
Experimental: CSF-1R-ECD-human Fe (in house) is diluted to 1.2 μg/ml with coating buffer and coating overnight at 4° C. After incubation step, plates were washed 1 time with the wash buffer and blocking with 1% casein blocking buffer at room temperature for 2 hours. Different dilutions of purified AB21 antibodies were incubated with 250 ng/ml of M-CSF (R&D system, 216-GMP-025) in dilution buffer at 37° C. for 1 hour. After 5 times of wash, the ligand which bound to the receptor can be detected by 50 ng/ml biotinylated […] clone BAF216 (R&D Systems, UK) and 1:5000 diluted streptavidin HRP (Roche Diagnostics GmbH, DE, Cat. No. 11089153001) after 1 hour incubation. Anti CSF-1R SC 2-4A5 (Santa Cruz Biotechnology, US), which inhibits the ligand-receptor interaction, was used as positive control. Plates were developed with TMB Microwell Peroxidase Substrate (KPL, 95059-154). Absorbance was measured at 450 nm. A decrease of absorbance is found, if the anti-CST-1R antibody causes a release of CSF-1 from the dimeric complex. […] Therefore, antibodies of the invention can be used to prevent or treat diseases mediated by CSF-1R or CSF-1.

[7] = target: T6, CSF-1R ECD variant 228-233A (human, UniProt P07333 20-512); experiment: ELISA, coated CSF-1R ECD variant 228-233A, AB21 titrated, Abs450
T6 chain: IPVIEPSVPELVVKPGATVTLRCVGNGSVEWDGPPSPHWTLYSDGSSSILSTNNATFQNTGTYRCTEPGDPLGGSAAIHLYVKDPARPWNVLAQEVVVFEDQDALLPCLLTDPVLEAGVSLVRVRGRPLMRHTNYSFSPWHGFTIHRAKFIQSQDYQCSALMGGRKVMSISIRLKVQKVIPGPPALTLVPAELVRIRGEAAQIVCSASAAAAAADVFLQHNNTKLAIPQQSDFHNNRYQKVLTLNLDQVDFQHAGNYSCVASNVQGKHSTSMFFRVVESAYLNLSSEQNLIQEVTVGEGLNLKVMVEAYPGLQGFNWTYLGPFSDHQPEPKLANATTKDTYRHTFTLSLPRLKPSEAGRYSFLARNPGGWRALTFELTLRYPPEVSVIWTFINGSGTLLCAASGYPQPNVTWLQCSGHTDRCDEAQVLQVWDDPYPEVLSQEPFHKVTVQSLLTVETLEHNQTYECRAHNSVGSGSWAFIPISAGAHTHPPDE
Experimental: as §2
To determine the binding epitopes of anti-CSF-1R antibody AB21, different CSF-1R extracellular domain variants that certain residues were replaced with alanine were constructed. […] After the variant proteins were purified, the binding affinity of AB21 mAb to these CSF-1R-ECD variants were analyzed by ELISA with the process described in Example 1.

Kd [1]: 745 pM | koff [2]: 4.9e-05 s⁻¹ | kon [2]: 399000 M⁻¹ s⁻¹ | binding result (mouse CSF-1R): no binding | EC50 [3]: 745 pM | EC50 [4]: 374 pM | Kd [5]: 123 pM | IC50 (read off the curve) [6]: ~2000 pM
B1: mouse hybridoma anti-human CSF-1R antibody mAb AB21 (antibody, V domains shown)
VH: EVQLQQSGPELEKPGASVKISCKASGYSFTGYNMNWVKQSNGKSLEWIGNIDPYYGGTTYNQKFKGKATLTVDKSSSTAYMQLKSLTSEDSAVYYCARRGDYSGSSYWYFDVWGAGTTVTVSS
VL: DIQMTQSSSYLSVSLGGRVTITCKASDHINNWLAWYQQKPGNAPRLLISGATSLETGVPSRFSGSGSGKDYTLSITSLQTEDVVTYYCQQYWSTPFTFGSGTKLEIK
notes: Mouse monoclonal antibody purified from hybridoma ascites (Protein A); also called AB21 mAb; mAb 21
binding result [7]: no binding (tested: about 3e-8 M (log -7.5 on the axis))
